The source of these data is patent US9988424 (DUKE UNIVERSITY, dated 2018).

Test [1] concerns the target T1, B.63521_V1V2 Tags.
T1 Env construct: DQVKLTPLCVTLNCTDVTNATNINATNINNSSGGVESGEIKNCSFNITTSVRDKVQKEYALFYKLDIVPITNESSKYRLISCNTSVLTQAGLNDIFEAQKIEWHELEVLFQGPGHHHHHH
The experiment in a line: ELISA, OD405. (An ELISA detects its analyte on a solid surface through an enzyme-linked reagent.)

Test [2] concerns the target T2, B.62357 140C.
T2 construct: also called B.62357 gp140C
As to the kind of experiment: ELISA, OD405.

In a further test the target is T3, G.con gp140CF.
T3 construct: also called G.con.env03 gp140CF
As to the kind of experiment: ELISA, OD405.

The target of a further test is Con 6 gp120. The experiment in a line: ELISA, OD405.
A further test addresses T4, AE.con gp140CF.
T4 construct: also called AE.con.env03 gp140CF
The experiment in a line: ELISA, OD405.

Another test has as its target T5, B.con gp140CF.
T5 construct: also called B.con.env03 gp140CF
The experiment in a line: ELISA, OD405.

The target of test [3] is T6, A.9004SS V1V2 Tags.
T6 Env construct: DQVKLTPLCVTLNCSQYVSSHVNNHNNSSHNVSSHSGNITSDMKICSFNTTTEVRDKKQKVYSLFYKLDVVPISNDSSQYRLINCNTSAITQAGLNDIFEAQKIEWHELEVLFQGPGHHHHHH
As to the kind of experiment: ELISA, OD405.

Another test addresses T7, B.Case A2 V1/V2 Tags.
T7 Env construct: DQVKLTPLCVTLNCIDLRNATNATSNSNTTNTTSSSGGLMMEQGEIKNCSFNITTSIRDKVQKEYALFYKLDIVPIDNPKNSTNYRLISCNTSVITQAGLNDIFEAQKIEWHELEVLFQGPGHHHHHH
The experiment in a line: ELISA, OD405.

For a further test, the target named is B. 684-6 gp140C. The experiment in a line: ELISA, OD405.
Another test has as its target B.63521 gp140C. As to the kind of experiment: ELISA, OD405.
In test [4] the target is T8, AE.con env03 40CF.
T8 construct: also called AE.con gp140CF; AE.con.env03 gp140CF
As to the kind of experiment: ELISA OD405nm, bar chart, antibody concentration not given.

Another test deals with T9, B.con env03 140CF.
T9 construct: also called B.con gp140CF
Described as above.

The target in a further test is T10, SIV CPZ US-1 gp140CF (SIVcpz).
T10 construct: also called US-1 SIVCPZ gp140CF
T10 chain: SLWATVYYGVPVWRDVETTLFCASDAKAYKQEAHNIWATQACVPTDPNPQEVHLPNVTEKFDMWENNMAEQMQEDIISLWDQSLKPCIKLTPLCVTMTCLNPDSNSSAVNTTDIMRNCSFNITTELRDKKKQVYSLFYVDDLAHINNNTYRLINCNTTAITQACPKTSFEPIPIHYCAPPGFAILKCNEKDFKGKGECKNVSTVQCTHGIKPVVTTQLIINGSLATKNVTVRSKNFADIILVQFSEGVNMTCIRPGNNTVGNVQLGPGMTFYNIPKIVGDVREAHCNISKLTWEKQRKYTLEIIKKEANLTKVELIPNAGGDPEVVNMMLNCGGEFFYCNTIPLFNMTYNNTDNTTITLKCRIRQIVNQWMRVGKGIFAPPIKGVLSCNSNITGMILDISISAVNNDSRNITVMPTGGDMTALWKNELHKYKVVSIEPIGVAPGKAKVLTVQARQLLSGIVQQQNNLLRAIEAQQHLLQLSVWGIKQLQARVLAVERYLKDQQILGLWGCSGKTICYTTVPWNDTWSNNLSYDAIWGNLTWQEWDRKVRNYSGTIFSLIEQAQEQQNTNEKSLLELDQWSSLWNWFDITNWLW
The test is described as above.

For test [5], the target named is B.040 gp140C. The description is as above.
Test [6] concerns the target T11, B.62357 140C.
T11 construct: also called B.62357 gp140C
Described as above.

Test [7] concerns the target T12, Con 6 120.
T12 construct: also called Con 6 gp120
The test is described as above.

Test [8] addresses T13, G.con 140CF.
T13 construct: also called G.con gp140CF; G.con.env03 gp140CF
The description is as above.

A further test concerns the target Env of SHIV-SF162P4 (SHIV). As to the kind of experiment: cell-based or functional assay.
A further test addresses Env of AE.CM244 virus (HIV-1). The experiment in a line: cell-based or functional assay.
For test [9], the target named is T8, AE.con env03 40CF. The experiment in a line: ELISA OD405nm, bar chart, antibody concentration not given. The source holds these as a separate data set.
For another test, the target named is B.9021 gp140C (HIV-1). Described as above.
In another test the target is D.9009SA V1V2 Tags. The description is as above.
The target of the next test is A.Q23 V1V2 tags (HIV-1). Described as above.
The target of test [10] is B.040 gp140C. Described as above. This is another data set of the same source.
The target in test [11] is B.63521_V1V2 Tags. The description is as above.
The target in test [12] is T11, B.62357 140C. The description is as above. This is another data set of the same source.
In test [13] the target is T14, A.9004SS V1V2 Tags.
T14 V1V2 tags construct: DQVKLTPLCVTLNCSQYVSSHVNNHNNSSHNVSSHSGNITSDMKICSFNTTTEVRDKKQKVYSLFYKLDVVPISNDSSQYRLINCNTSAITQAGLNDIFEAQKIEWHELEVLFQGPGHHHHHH
The test is described as above.

Test [14] addresses T12, Con 6 120. The description is as above. This is another data set of the same source.
For test [15], the target named is T13, G.con 140CF. Described as above. This is another data set of the same source.

Read-outs that look alike come from different tables or passages of the source.

B1: PG16 reverted unmutated ancestor antibody (antibody, V domains shown)
VH: QVQLVESGGGVVQPGRSLRLSCAASGFTFSSYGMHWVRQAPGKGLEWVAVISYDGSNKYYADSVKGRFTISRDNSKNTLYLQMNSLRAEDTAVYYCAREAGGPIWHDDVKYYDFNDGYYYYYYMDVWGKGTTVTVSS
VL: QSALTQPASVSGSPGQSITISCTGTSSDVGSYNLVSWYQQHPGKAPKLMIYEVSKRPSGVSNRFSGSKSGNTASLTISGLQAEDEADYYCCSLTDRSHRIFGGGTKLTVL
notes: also called PG16 RUA; PG16_RUA
Take B1: the binding result with B.63521_V1V2 Tags [1], with B.62357 140C [2], with G.con gp140CF, with Con 6 gp120, with AE.con gp140CF and with B.con gp140CF was “no binding (tested: 10 ug/ml)” each time. Besides, the binding result with A.9004SS V1V2 Tags [3], with B.Case A2 V1/V2 Tags, with B. 684-6 gp140C and in the test with B.63521 gp140C was “no binding (tested: 10 ug/ml)” throughout.

B2: CH58 reverted unmutated ancestor antibody (antibody, V domains shown)
VH: EVQLVQSGAEVKKPGESLKISCKGSGYSFTSYWIGWVRQMPGKGLEWMGIIYPGDSDTRYSPSFQGQVTISADKSISTAYLQWSSLKASDTAMYYCARLGGRYYYDSSGYYYFDYWGQGTLVTVSS
VL: NFMLTQPHSVSESPGKTVTISCTRSSGSIASNYVQWYQQRPGSSPTTVIYEDNQRPSGVPDRFSGSIDSSSNSASLTISGLKTEDEADYYCQSYDSSSWVFGGGTKLTVL
notes: also called CH58 RUA; CH58_RUA
As to B2, the binding result with AE.con env03 40CF [4], with B.con env03 140CF, with SIV CPZ US-1 gp140CF, with B.040 gp140C [5], in the test with B.62357 140C [6] and in the test with Con 6 120 [7] was “no binding (tested: not given)” each time. The binding result with G.con 140CF [8] is “no binding (tested: not given)”.

B3: CH59 (antibody, V domains shown)
VH: EVQLVESGGGLVQPGRSLRLSCAASGFTFDDGAMHWVRQAPGKGLEWVSGISWNSNIIAYADSVKGRFTISRDNAKNSLYLEMNSLRVEDTALYYCAKDSPRGELPLNYWGQGTLVTVSS
VL: SYELTQPPSVSVSPGQTARITCSGDALPKNYAYWYQQKSGQAPVLVIYEDSKRPSGIPERFSGSSSGTMATLTISGAQVEDEADYYCYSTDSSGNHRVFGGGTKLTVL
notes: also called mAb CH59
As for B3, the “EC50, neutralization of SHIV-SF162P4” value in the test with Env of SHIV-SF162P4 is above 50 µg/mL. Moreover, the “EC50, neutralization of AE.CM244” value in the test with Env of AE.CM244 virus was above 50 µg/mL. In addition, the binding result in the test with AE.con env03 40CF [9] is “binds”; in the test with B.9021 gp140C it was “no binding (tested: not given)”; in the test with D.9009SA V1V2 Tags it was “binds”; in the test with A.Q23 V1V2 tags it was “no binding (tested: not given)”; with B.040 gp140C [10] it was “no binding (tested: not given)”; in the test with B.63521_V1V2 Tags [11] it was “no binding (tested: not given)”. Moreover, the binding result with B.62357 140C [12] is on record as “no binding (tested: not given)”; with A.9004SS V1V2 Tags [13], “binds”; with Con 6 120 [14], “no binding (tested: not given)”; with G.con 140CF [15], “no binding (tested: not given)”.
